From PMC2964344

Settings: methylation at K27

Q: For “histone H3: ATXR6 Y243N (SET-domain catalytic mutant) expressed in atxr5 atxr6”, which other is on record?
A: changes
